Normalised SPOT signal, Boehringer light units (BLU); mean over the file's lines of this peptide data for 38 molecules are collected here from paper PMC314469, “Protein Interaction Networks by Proteome Peptide Scanning” (PLoS Biology, 2004).

For assay [1], the target named is T1, amphyphisin SH3 (AMPH_HUMAN), P49418.
T1 chain: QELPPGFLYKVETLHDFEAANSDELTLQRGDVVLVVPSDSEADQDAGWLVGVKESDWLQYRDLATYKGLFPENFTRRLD
As to the kind of experiment: SPOT array.

The target in assay [2] is endophilin SH3 (SH3G2_HUMAN), Q99962. Put plainly: SPOT array.

Regarding EERALRRPGHLYLL [Q8WZ07 124-137], the normalised SPOT signal, Boehringer light units (BLU); mean over the file's lines of this peptide in assay [1] turned out to be 38.2; in assay [2] it was 14.7.

EEVPPHKPPTLPLD [Q9BXF3 1468-1482]: the values for the normalised SPOT signal, Boehringer light units (BLU); mean over the file's lines of this peptide in assay [1] and in assay [2] were 28.7 and 59.8, respectively.

Take EGQQLVRPKKLPLI [Q9H2U9 25-38]: the normalised SPOT signal, Boehringer light units (BLU); mean over the file's lines of this peptide in assay [1] is 87.3; in assay [2] it was 70.

Consider EESLPKRPLGKHSK [Q8WYQ9 81-94], for which the figures for the normalised SPOT signal, Boehringer light units (BLU); mean over the file's lines of this peptide in assay [1] and in assay [2] were 32.4 and 201, respectively.

Turning to EEVVPPRPPLPRSY [CAD38934 123-137], the normalised SPOT signal, Boehringer light units (BLU); mean over the file's lines of this peptide in assay [1] came to 109; in assay [2] it was 8260.

For the molecule EDPPPTRPSRPWRD [Q9UIG4 62-75], the values for the normalised SPOT signal, Boehringer light units (BLU); mean over the file's lines of this peptide in assay [1] and in assay [2] were 6800 and 382, respectively.

Take EGTEPRRPRAGPEE [P18887 302-315]: the figures for the normalised SPOT signal, Boehringer light units (BLU); mean over the file's lines of this peptide in assay [1] and in assay [2] were 36.7 and 4.9, respectively.

EGHRPRRPRGALPP [Q9UGQ7 111-124]: the results for the normalised SPOT signal, Boehringer light units (BLU); mean over the file's lines of this peptide in assay [1] and in assay [2] were 27.1 and 2060, respectively.

For the molecule EGPSPARPPRRRTS [Q9Y5L9 2452-2466], the normalised SPOT signal, Boehringer light units (BLU); mean over the file's lines of this peptide in assay [1] was 16700; in assay [2] it was 5340.

With EEAQIFRPLKFNTT [Q15029 572-585], the normalised SPOT signal, Boehringer light units (BLU); mean over the file's lines of this peptide came to 83.5 in assay [1] and 75.8 in assay [2].

For EGHALRRPPPRWLL [Q8WUK7 5-18], the normalised SPOT signal, Boehringer light units (BLU); mean over the file's lines of this peptide in assay [1] stood at 66.6; in assay [2], 0.

EGNKPQRPPPPRRP [Q04118 252-266]: the normalised SPOT signal, Boehringer light units (BLU); mean over the file's lines of this peptide was 5630 in assay [1] and 18200 in assay [2].

For the molecule EGLAFRRPAEYDPK [O95444 171-184], the normalised SPOT signal, Boehringer light units (BLU); mean over the file's lines of this peptide is 29.1 in assay [1] and 39.5 in assay [2].

Consider EGIPFRRPSTYGIP [P78347 404-417], for which the normalised SPOT signal, Boehringer light units (BLU); mean over the file's lines of this peptide in assay [1] came to 42.6; in assay [2], 40.3.

As to EGSMLRRPRTSSQH [Q92538 1455-1468], the figures for the normalised SPOT signal, Boehringer light units (BLU); mean over the file's lines of this peptide in assay [1] and in assay [2] were 115 and 443, respectively.

Turning to EEKVPEKPPTPKES [Q9HDC5 18-32], the normalised SPOT signal, Boehringer light units (BLU); mean over the file's lines of this peptide in assay [1] worked out at 25; in assay [2], 21.3.

As for EEAALKRPEIISTV [Q9NU22 363-376], the normalised SPOT signal, Boehringer light units (BLU); mean over the file's lines of this peptide in assay [1] came out at 18; in assay [2], 15.2.

In the case of EEPKILRPPRRPRK [Q9NYS8 1484-1497], the normalised SPOT signal, Boehringer light units (BLU); mean over the file's lines of this peptide is 12700 in assay [1] and 508 in assay [2].

Consider EEEELARPPREQGQ [Q14767 745-758], for which the normalised SPOT signal, Boehringer light units (BLU); mean over the file's lines of this peptide in assay [1] turned out to be 154; in assay [2] it was 150.

Take EDSIPKRPVSSIPL [Q8WTV4 223-236]: the normalised SPOT signal, Boehringer light units (BLU); mean over the file's lines of this peptide in assay [1] came out at 33.5; in assay [2], 55.6.

On to EDKALPRPIRPHRN [O75163 272-285], for which the normalised SPOT signal, Boehringer light units (BLU); mean over the file's lines of this peptide is 483 in assay [1] and 22.8 in assay [2].

As to EDVKPFKPPLSDAE [Q9UJV1 144-158], the values for the normalised SPOT signal, Boehringer light units (BLU); mean over the file's lines of this peptide in assay [1] and in assay [2] were 41.5 and 58.1, respectively.

Turning to EERPLRRPRPVQRT [Q9H7J2 535-548], the normalised SPOT signal, Boehringer light units (BLU); mean over the file's lines of this peptide in assay [1] was 836; in assay [2], 678.

Take EDRLPRRPARSGGP [Q9UGK6 43-56]: the normalised SPOT signal, Boehringer light units (BLU); mean over the file's lines of this peptide in assay [1] was 9000; in assay [2] it was 9090.

As for AFPRPKRPAPAQEA [Q9BQ84 248-261], the normalised SPOT signal, Boehringer light units (BLU); mean over the file's lines of this peptide in assay [1] was 145; in assay [2] it was 154.

Regarding EDVLLRRPKSTPDM [Q9NUD7 336-349], the normalised SPOT signal, Boehringer light units (BLU); mean over the file's lines of this peptide is 38.7 in assay [1] and 16.2 in assay [2].

In the case of EFGLPGRPGRPGLN [P39059 904-917], the normalised SPOT signal, Boehringer light units (BLU); mean over the file's lines of this peptide in assay [1] was found to be 282; in assay [2] it was 141.

On to AGLRPPKPPRPASL [O75190 254-268], for which the normalised SPOT signal, Boehringer light units (BLU); mean over the file's lines of this peptide is 2380 in assay [1] and 12300 in assay [2].

Take EGNRPKKPPPPSAP [Q9NYR0 332-346]: the normalised SPOT signal, Boehringer light units (BLU); mean over the file's lines of this peptide in assay [1] is 53.4; in assay [2], 2130.

Take EGAVPRRPEDALLL [Q96ML3 90-103]: the normalised SPOT signal, Boehringer light units (BLU); mean over the file's lines of this peptide in assay [1] was 72.5; in assay [2], -0.

Turning to EEEPPRRPRARSSE [O60301 1-14], the normalised SPOT signal, Boehringer light units (BLU); mean over the file's lines of this peptide in assay [1] is 4.2; in assay [2], 26.3.

For the molecule EEASFRRPHPDGDV [Q9UBD0 73-86], the normalised SPOT signal, Boehringer light units (BLU); mean over the file's lines of this peptide amounted to 39.7 in assay [1] and 0.7 in assay [2].

Take EGEEPKRPPGISER [Q9NS96 504-517]: the normalised SPOT signal, Boehringer light units (BLU); mean over the file's lines of this peptide in assay [1] is 23.2; in assay [2], 21.4.

As to EEIALERPEKEIRN [Q9H5F4 313-326], the figures for the normalised SPOT signal, Boehringer light units (BLU); mean over the file's lines of this peptide in assay [1] and in assay [2] were 122 and 0, respectively.

On to EGAAPRRPGFWGSL [Q92988 19-32], for which the normalised SPOT signal, Boehringer light units (BLU); mean over the file's lines of this peptide came out at 29.7 in assay [1] and 1570 in assay [2].

AETRPHRPPGARDS [Q9H021 747-761]: the normalised SPOT signal, Boehringer light units (BLU); mean over the file's lines of this peptide is 218 in assay [1] and 1440 in assay [2].

With AFVNFRRPEDARAA [Q96T37 218-231], the normalised SPOT signal, Boehringer light units (BLU); mean over the file's lines of this peptide in assay [1] came out at 17.2; in assay [2], 51.2.

For EGISLRRPNSFGIA [O95444 608-621], the normalised SPOT signal, Boehringer light units (BLU); mean over the file's lines of this peptide in assay [1] worked out at 27.1; in assay [2], 51.5.
